Reference: publication PMC9638930, “Structural basis of flagellar motility regulation by the MogR repressor and the GmaR antirepressor in Listeria monocytogenes” (Nucleic Acids Research, 2022)

Key:
[1] = molecular target: His6-tagged GmaRFL protein; experiment: ELISA
[2] = molecular target: MogRD^S114A/Q117A/N118A/K122A (Listeria monocytogenes) (UniProt P0DJO8); experiment: ELISA; wells coated with MogR protein (20 nM); three-fold serially diluted His6-tagged GmaRFL, 2 h at 18°C; detected with anti-His6 antibody
[3] = molecular target: MogRD with individual mutation of the N154, I155 and F156 residues to alanine; experiment: as above
MogRD Site1-Ala [4] = molecular target: T1, MogRD Site1-Ala (Listeria monocytogenes, UniProt P0DJO8 1-162, K152A;T153A;N154A;I155A;F156A); experiment: FP; 100 nM MogR with GmaRFL; no inhibition; 20 mM Hepes pH 7.4, 150 mM NaCl, 5 mM bME; FP room temperature with 1 nM dsDNA; EMSA 18 C 30 min (GmaR inhibition assays at room temperature, 10 min, 2:1 MogR:dsDNA); conditions: protein: recombinant; tags: N-terminal His6, thrombin site; chain copies: 2; blunt
[5] = molecular target: T2, MogRD (MogR DNA-binding domain) (Listeria monocytogenes, UniProt P0DJO8 1-162); experiment: FP; 20 mM Hepes pH 7.4, 150 mM NaCl, 5 mM bME; FP room temperature with 1 nM dsDNA; EMSA 18 C 30 min (GmaR inhibition assays at room temperature, 10 min, 2:1 MogR:dsDNA); conditions: protein: recombinant; tags: N-terminal His6, thrombin site; blunt
T2 sequence: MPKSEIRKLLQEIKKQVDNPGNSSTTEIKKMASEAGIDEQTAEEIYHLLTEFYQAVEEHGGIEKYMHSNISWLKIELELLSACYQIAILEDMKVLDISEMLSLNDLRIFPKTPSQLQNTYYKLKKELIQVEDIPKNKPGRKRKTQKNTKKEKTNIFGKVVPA

MogR1-151 [6] = molecular target: T3, MogR1-151 (Listeria monocytogenes, UniProt P0DJO8 1-151); experiment: as above; conditions: protein: recombinant; tags: N-terminal His6, thrombin site; blunt
T3 sequence: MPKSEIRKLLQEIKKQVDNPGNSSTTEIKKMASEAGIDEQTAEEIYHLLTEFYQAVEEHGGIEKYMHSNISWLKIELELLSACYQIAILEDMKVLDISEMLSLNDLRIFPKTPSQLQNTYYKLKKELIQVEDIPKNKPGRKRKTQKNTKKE

[7] = molecular target: full-length GmaR (GmaRFL; residues 1–637) (Listeria monocytogenes); experiment: SEC; Superdex 200 10/300 at room temperature, 20 mM Hepes pH 7.4, 150 mM NaCl, 5 mM βME; GmaRFL, MogRD and their 1:1 molar mixture
[8] = molecular target: full-length GmaR (GmaRFL; residues 1–637) (Listeria monocytogenes); experiment: native gel or EMSA; native PAGE (6% gel, pH 8.8, Coomassie); GmaR incubated with MogR at a defined molar ratio at 18°C for 30 min in 20 mM Hepes pH 7.4, 150 mM NaCl, 5 mM βME
[9] = molecular target: full-length GmaR (GmaRFL; residues 1–637) (Listeria monocytogenes); experiment: ITC; MicroCal iTC200, 18°C; 250 μM MogRD injected into 25 μM GmaRFL or GmaR_(141-637); 20 mM Hepes pH 7.4, 150 mM NaCl, 5 mM βME; one-site binding model
[10] = molecular target: T4, MogR DBD protein (MogRD; residues 1–162) (Listeria monocytogenes, UniProt P0DJO8 1-162); experiment: as above; conditions: both partners purified
T4 construct: Monomer by gel filtration; also called MogR^GmaR; source: E. coli BL21 (DE3), purified (Ni-NTA, Mono S or Mono Q ion exchange); for the crystal co-purified with GmaR_(231-637)
T4 sequence: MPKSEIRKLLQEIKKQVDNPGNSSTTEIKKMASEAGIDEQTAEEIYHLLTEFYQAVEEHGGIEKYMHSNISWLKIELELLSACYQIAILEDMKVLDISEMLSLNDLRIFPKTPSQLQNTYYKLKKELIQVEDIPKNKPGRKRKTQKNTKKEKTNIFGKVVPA

[11] = molecular target: T2, MogRD (MogR DNA-binding domain); experiment: EMSA; with GmaRFL pretreated at 37 C 15 min; inhibition lost; 20 mM Hepes pH 7.4, 150 mM NaCl, 5 mM bME; FP room temperature with 1 nM dsDNA; EMSA 18 C 30 min (GmaR inhibition assays at room temperature, 10 min, 2:1 MogR:dsDNA); conditions: protein: recombinant; tags: N-terminal His6, thrombin site; label: none (ethidium bromide stain); blunt
MogRD Site1-Ala [12] = molecular target: T1, MogRD Site1-Ala; experiment: EMSA; 20 mM Hepes pH 7.4, 150 mM NaCl, 5 mM bME; FP room temperature with 1 nM dsDNA; EMSA 18 C 30 min (GmaR inhibition assays at room temperature, 10 min, 2:1 MogR:dsDNA); conditions: protein: recombinant; tags: N-terminal His6, thrombin site; chain copies: 2; label: none (ethidium bromide stain); blunt
MogR1-151 [13] = molecular target: T3, MogR1-151; experiment: as above; conditions: protein: recombinant; tags: N-terminal His6, thrombin site; label: none (ethidium bromide stain); blunt
MogRD SiteMIG-Ala = MogRD SiteMIG-Ala (Listeria monocytogenes, UniProt P0DJO8 1-162, R140A;K141A;R142A;K143A;T144A); experiment: EMSA or FP (Supplementary Fig S9; method and label not given in material); 20 mM Hepes pH 7.4, 150 mM NaCl, 5 mM bME; FP room temperature with 1 nM dsDNA; EMSA 18 C 30 min (GmaR inhibition assays at room temperature, 10 min, 2:1 MogR:dsDNA); conditions: protein: recombinant; tags: N-terminal His6, thrombin site; chain copies: 2; label: none (ethidium bromide stain); blunt

## MogR DBD protein (MogRD; residues 1–162) (from UniProt P0DJO8) N154A
[1]; parent: 220 ± 81
  EC50: 1230 nM

## MogR DBD protein (MogRD; residues 1–162) (from UniProt P0DJO8) T112A
[1]; parent: 167 ± 18
  EC50: 165 nM

## MogR DBD protein (MogRD; residues 1–162) (from UniProt P0DJO8) S114A
[1]; parent: 167 ± 18
  EC50: 139 nM

## MogR DBD protein (MogRD; residues 1–162) (from UniProt P0DJO8) S114A; Q117A; N118A; K122A
[1]; parent: 167 ± 18
  EC50: 342 nM

## MogR DBD protein (MogRD; residues 1–162) (from UniProt P0DJO8) K152A
[1]; parent: 220 ± 81
  EC50: 346 nM

## MogR DBD protein (MogRD; residues 1–162) (from UniProt P0DJO8) F156A
[1]; parent: 220 ± 81
  EC50: 1420 nM

## MogR DBD protein (MogRD; residues 1–162) (from UniProt P0DJO8) I155A
[1]; parent: 220 ± 81
  EC50: 1170 nM

## MogR DBD protein (MogRD; residues 1–162) (from UniProt P0DJO8) K122A
[1]; parent: 167 ± 18
  EC50: 160 nM

## MogR DBD protein (MogRD; residues 1–162) (from UniProt P0DJO8) T153A
[1]; parent: 220 ± 81
  EC50: 518 nM

## MogR DBD protein (MogRD; residues 1–162) (from UniProt P0DJO8) N118A
[1]; parent: 167 ± 18
  EC50: 185 nM

## His6-tagged GmaRFL protein (natural protein)
[2]
  fold lower GmaRFL-binding activity than MogRD: 2 fold
[3]
  fold reduction of GmaRFL-binding activity against MogRD: 5 to 6 fold

## MogR DBD protein (MogRD; residues 1–162) (from UniProt P0DJO8) Q117A
[1]; parent: 167 ± 18
  EC50: 182 nM

B1: operator dsDNA, fluorescein-labeled (dsDNA)
DNA 1: ATTTGATTTTTTAAAAAAATGAAGA
DNA 2: TCTTCATTTTTTTAAAAAATCAAAT
MogRD Site1-Ala [4]
  binding result: binds
[5]
  binding result: binds
MogR1-151 [6]
  binding result: binds

B2: MogR DBD protein (MogRD; residues 1–162) (domain or fragment)
chain: MPKSEIRKLLQEIKKQVDNPGNSSTTEIKKMASEAGIDEQTAEEIYHLLTEFYQAVEEHGGIEKYMHSNISWLKIELELLSACYQIAILEDMKVLDISEMLSLNDLRIFPKTPSQLQNTYYKLKKELIQVEDIPKNKPGRKRKTQKNTKKEKTNIFGKVVPA
[7]
  stoichiometry N: 1
[8]
  stoichiometry N: 1
[9]
  Kd: 13 nM

B3: N-terminally truncated GmaR protein (GmaR_(141-637); residues 141–637) (domain or fragment)
chain: RGVIHEQLEAIDKRPIAAGVAEVKIYHYGYMSEIVEKQDKSDRNLRLLEKEVKNNKNSGFVHFNIGQEMNRLGNKKEALKEFSEAFRLRDHNHYIWAKLSAYHIAELLEQEKRYDESLAIIEEARVIWPNVPEFPLKKANILYVNHQLEDAKEIYQSLLENAAIDYQPIVLYEATNFMPHKMLGTIYLEEKDYTRAMTHFSKAYAENSSDYGVMFQMIMLLSKFHQPKEIFAFMERHHFISSTETGLRLLSMTTQQGYAELSELIVQSLTDVYPPVAEATEVKIATIRNVFPVISESAILFGIKEELIDAADLCLWHYENPQLPIENVMKNSDVGDIYDFIFENGPRISKKRYLFVLERAIALGKGEFADYLLALRNVYHDSINSHIADLFFQYDFADIALDFYNIVDADEVTKQGYINLINYLVDADVLDEALAIAERGIDNFSTDFRFYLWAIKIDTENRANRISEAMDEFPNNRYLAKLLDEVTMLQDTVTNNR
[10]
  Kd: ~22 nM

B4: operator dsDNA, unlabeled (dsDNA)
DNA 1: ATTTGATTTTTTAAAAAAATGAAGA
DNA 2: TCTTCATTTTTTTAAAAAATCAAAT
[11]
  binding result: binds
MogRD Site1-Ala [12]
  binding result: binds
MogR1-151 [13]
  binding result: binds
MogRD SiteMIG-Ala
  binding result: no binding
